Laboratory results published in patent publication US20140186370A1.

Biological target: vaccinia virus B5R 6xHis protein (baculovirus-expressed soluble extracellular domain) (vaccinia virus)

With Hum IgG1 isotype control (antibody) the % inhibition was 0%.
